Test [1] concerns the target T1, FMDV Asia 1 virus-like particles (VLPs) (Foot-and-mouth disease virus serotype …, UniProt A2I7M2).
T1 construct: also called Asia 1 VLPs antigen; recombinant VLPs; copies: + +
Put plainly: SPR. As to conditions: both partners purified.

Test [2] addresses T2, FMDV Asia 1 virions in infected BHK-21 cells (Foot-and-mouth disease virus serotype …, UniProt A2I7M2, strain).
T2 construct: also called FMD virions; FMD Asia 1 virions; copies: + + +
The test can be described thus: immunostaining of cells or tissue. As to conditions: one partner purified.

B1: sdAb-C6 (VHH)
VHH: HVQLVESGGGSVQAGGSLRLSCTYSVYTYSSDSMAWFRQAPGKEREGVAGIYIGSGSTLYADSVKGRFTISQDKAKNTVYLQMNSLKPEDTALYYCAAGGNWYDGVLNVERAFAYWGQGTQVTVSS
notes: also called clone 6; sdAb-6
In the case of B1, in test [1], binding was characterised by a dissociation constant (Kd) of 0.44 nM; the koff (in general, the first-order rate constant of dissociation) was 0.000703 s⁻¹; the kon (usually the second-order rate constant of association) amounted to 1.6e+06 M⁻¹ s⁻¹.

B2: QDs-C6 probe (VHH)
VHH: B1 VHH
notes: also called QD-sdAb probe; QDs-sdAb
Take B2: the binding result in test [2] is reported as “binds”.

B3: Alexa Fluor-488-conjugated-sdAb-C6 (VHH)
VHH: B1 VHH
notes: also called AF488-C6; AF488-C6 probe
Turning to B3, the binding result in test [2] is on record as “binds”.

For the origin of these results see publication PMC3667858 (PLoS ONE, 2013).
